According to patent US8906858B2, “Method for the prophylactic or therapeutic treatment of glucocorticoid-induced osteoporosis” (Fritz-Lipmann-Institut E. V. Leibniz-Institut Fuer …, priority 2010, dated 2014):

B1: IL-11: recombinant Interleukin-11 (protein, UniProt P20809 22-199, looked up)
Interleukin-11: PGPPPGPPRVSPDPRAELDSTVLLTRSLLADTRQLAAQLRDKFPADGDHNLDSLPTLAMSAGALGALQLPGVLTRLRADLLSYLRHVQWLRRAGGSSLKTLEPELGTLQARLDRLLRRLQLLMSRLALPQPPPDPPAPPLAPPSSAWGGIRAAHAILGGLHLTLDWAVRGLLLLKTRL
B2: HB-EGF: heparin binding-epidermal growth factor (protein, UniProt Q99075 63-148, looked up)
Heparin-binding EGF-like …: DLQEADLDLLRVTLSSKPQALATPNKEEHGKRKKKGKGLGKKRDPCLRKYKDFCIHGECKYVKELRAPSCICHPGYHGERCHGLSL

Test system: primary wild type osteoblasts
Assay: Soluble factors added to osteoblasts during osteogenic induction in presence or absence of Dex
Type: cell-based, mouse
Description: FIG. 7. Differential gene regulation in GR^dim osteoblasts and bone organs by GCs and involvement of AP-1 in suppression of IL-11 in osteoblast differentiation. (A-E) Primary osteoblasts were grown until confluence and treated as described in FIG. 4A. qRT-PCR-determined mRNA expression levels of GILZ, Per-1, KLF15, Lif (LIF) and II11 (IL-11) after six hours. (F-H) qRT-PCR-determined mRNA expression level of IL-11 in organ cultures of GR mutant fetal hind legs (F), in dN^Runx2Cre osteoblasts (G) and c-jun^null MEFs (H) after six hours treatment. (I) Chromatin immunoprecipitation of MEFs after six hours. […] IgG precipitation served as negative control and amplification of the input as positive control. […] At day 10, ALP activity was determined and at day 20, Alizarin Red staining was performed. (K) Quantification of ALP-positive cells treated as in (J) after 10 days. (L) qRT-PCR-determined Runx2 mRNA expression level in cells treated as in (J) after 10 days.
FIG. 13. Effects of GR regulated soluble factors on osteoblast cell numbers. […] At day 10 cell counts were determined by automatic microscopy. Data are represented as mean+/−SEM. *<0.05.
FIG. 14. Effects of GR regulated soluble factors on osteoblast cell differentiation. Primary wild type osteoblasts were differentiated with or without Dex. At day 10 the specific ALP activity was determined and is depicted as ALP positive cells in percent in the absence or presence of NGF (A), IL-6 (B), EGF (C) and LIF (D). Data are represented as mean+/−SEM. * p<0.05; ** p<0.01.
Primary osteoblasts were isolated from either embryonic (E18.5) or neonatal calvaria by sequential digestions and cultivated as previously described (David et al., 2005). c-Jun-deficient cells were obtained from previously described mice (Schreiber et al., 1999). […] Differentiation of osteoblasts was determined by staining for ALP activity (ALP kit, Sigma or ELF® Phosphatase Detection Kit, ATCC) or by Alizarin Red staining (Sigma) at indicated time points. Apoptosis was detected by In situ Cell Death Detection Kit (Roche), and proliferation with fluorescent immunohistochemistry using mouse anti-Ki-67 (BD Pharmingen™) and Alexa Fluor® 594-labeled donkey anti-mouse IgG (Molecular Probes™). Quantification of the stainings and cell numbers according to DAPI labeling was performed by automated microscopy using Cellomics ArrayScan and software HCS Scan® (Thermo-Fischer). The factors EGF (Calbiochem), NGF2 (Sigma), IL-6 (ImmunoTools), IL-11 (Antigenix America, Inc.) and LIF (Chemicon) were added to the culture after differentiation at concentrations of 0.8, 4 and 20 ng/ml. qRT-PCR was performed as previously described (Tuckermann et al., 2007). Primer information can be provided upon request.

| Molecule | rescue of Dex-impaired osteoblast differentiation (ALP positive cells) (day 10, with Dex) | rescue of Dex-reduced osteoblast cell numbers (day 10, with Dex) | Dex suppression of ALP activity, of Runx2 expression and calcification (in the presence of IL-11) | effect on osteoblast differentiation |
| --- | --- | --- | --- | --- |
| B1 | potently antagonized | not rescuing | fully restored | – |
| B2 | – | – | – | inhibitory effect |
